{"source": "paper PMC2919099", "target": "T1, DRH-3 (Caenorhabditis elegans (N2), UniProt Q93413 1-1119)", "T1 sequence": "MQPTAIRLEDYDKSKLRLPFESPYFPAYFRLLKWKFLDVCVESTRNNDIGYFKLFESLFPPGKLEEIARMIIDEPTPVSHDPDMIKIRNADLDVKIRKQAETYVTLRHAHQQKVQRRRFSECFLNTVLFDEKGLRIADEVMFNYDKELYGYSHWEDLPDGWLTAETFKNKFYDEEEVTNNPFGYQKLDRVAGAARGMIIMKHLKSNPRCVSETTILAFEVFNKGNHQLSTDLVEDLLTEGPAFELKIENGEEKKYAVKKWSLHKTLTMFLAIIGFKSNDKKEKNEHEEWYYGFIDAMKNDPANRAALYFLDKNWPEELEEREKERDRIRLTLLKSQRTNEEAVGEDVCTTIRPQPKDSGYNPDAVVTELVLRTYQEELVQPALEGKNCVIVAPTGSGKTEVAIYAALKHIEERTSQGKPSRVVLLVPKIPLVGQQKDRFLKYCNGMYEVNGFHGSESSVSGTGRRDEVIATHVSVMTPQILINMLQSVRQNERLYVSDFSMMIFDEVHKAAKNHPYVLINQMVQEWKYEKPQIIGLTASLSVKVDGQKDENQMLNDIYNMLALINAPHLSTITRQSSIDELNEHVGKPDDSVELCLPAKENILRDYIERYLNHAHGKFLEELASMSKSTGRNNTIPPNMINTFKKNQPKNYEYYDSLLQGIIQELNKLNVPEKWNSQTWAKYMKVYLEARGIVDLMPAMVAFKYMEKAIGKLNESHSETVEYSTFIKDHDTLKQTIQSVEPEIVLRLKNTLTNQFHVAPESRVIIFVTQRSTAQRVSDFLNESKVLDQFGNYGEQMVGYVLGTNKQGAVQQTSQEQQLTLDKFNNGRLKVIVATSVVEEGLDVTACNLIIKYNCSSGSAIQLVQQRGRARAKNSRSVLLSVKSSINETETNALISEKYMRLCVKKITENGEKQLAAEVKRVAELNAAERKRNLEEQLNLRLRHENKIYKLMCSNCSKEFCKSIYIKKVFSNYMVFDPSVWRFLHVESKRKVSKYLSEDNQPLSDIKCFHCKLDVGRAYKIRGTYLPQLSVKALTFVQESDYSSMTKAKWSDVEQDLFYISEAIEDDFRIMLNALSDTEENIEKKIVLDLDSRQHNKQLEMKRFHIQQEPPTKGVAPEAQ", "test": "EMSA"}
{"binder": "ds25 RNA (25 bp) (dsRNA) RNA 1: GGGUAUAGACUGACUAGGAUCUCCC RNA 2: GGGAGAUCCUAGUCAGUCUAUACCC", "values": [{"measurement": "Kd", "value": 11, "unit": "nM"}]}
